Assays:
[1] = target: CFH18-20 (human complement factor H CCP18-20) with myc tag and His-tag (human) (UniProt P08603); test: ITC; CFH18-20 in the cell (5-15 uM), VHH4 or mutants in the syringe (50-150 uM), 20 injections; PBS pH 7.4, 25 °C; iTC200
[2] = target: T1, CFH18-20 (human complement factor H CCP18-20) with His-tag only (Homo sapiens, UniProt P08603); test: crystal structure; complex of CFH18-20 with His-tag and VHH4 mixed at 1:1.2 and purified by SEC; crystals at 20 °C in 200 mM sodium phosphate monobasic, 20% PEG 3350; 2.6 Å; details: both partners purified
T1 construct: complement factor H (CFH), human, domains CCP18-20; Construct for crystallization; Domain CCP18 was not observed in the crystal structure; also called CFH18-20 with His-tag; source: Expi293 cells, transfected, purified from the supernatant (Ni-NTA, SEC); not shown: His-tag, C-terminal, kept
T1 sequence (P08603 1046-1231): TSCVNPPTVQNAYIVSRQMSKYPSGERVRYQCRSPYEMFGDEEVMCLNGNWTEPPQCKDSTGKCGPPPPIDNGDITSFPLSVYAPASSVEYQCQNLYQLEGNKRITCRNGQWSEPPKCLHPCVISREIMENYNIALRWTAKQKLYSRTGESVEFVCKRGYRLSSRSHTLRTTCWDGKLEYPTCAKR

[3] = target: CFH18-20 (human complement factor H CCP18-20) with myc tag and His-tag (human) (UniProt P08603); test: SPR; CFH18-20 (or W1183A) immobilised on a CM5 chip by amine coupling at around 300 RU; VHH4 or its mutants injected as analyte at 30 uL/min; single-cycle kinetics; PBS pH 7.4, Tween 20 (0.005%), 25 °C; Biacore 8K
[4] = target: CFH18-20 W1183A_(CCP20) (human) (UniProt P08603); test: as above
Chain of CFH18-20 W1183A_(CCP20) (human) (P08603 1046-1231 W1183A): as the sequence (P08603 1046-1231) above, with W138A counted along it

[5] = target: T2, CFH18-20 (human complement factor H CCP18-20) with myc tag and His-tag (Homo sapiens, UniProt P08603); test: ITC; CFH18-20 in the cell (5-15 uM), VHH4 or mutants in the syringe (50-150 uM), 20 injections; PBS pH 7.4, 25 °C; iTC200; details: both partners purified
T2 construct: complement factor H (CFH), human, domains CCP18-20; Construct for SPR and ITC; PDB 7WKI holds the His-only form of the same protein; also called CFH18-20 WT; CFH CCP18-20; source: Expi293 cells, transfected, purified from the supernatant (Ni-NTA, SEC); not shown: myc, C-terminal, kept; His-tag, C-terminal, kept
T2 sequence (P08603 1046-1231): as the sequence (P08603 1046-1231) above

[6] = target: T2, CFH18-20 (human complement factor H …); test: SPR; CFH18-20 (or W1183A) immobilised on a CM5 chip by amine coupling at around 300 RU; VHH4 or its mutants injected as analyte at 30 uL/min; single-cycle kinetics; PBS pH 7.4, Tween 20 (0.005%), 25 °C; Biacore 8K; details: both partners purified

Chain of CFH18-20 (human complement factor H CCP18-20) with myc tag and His-tag (human) (P08603 1046-1231): as above

| Binder | Kd [1] | dH [1] | stoichiometry N [1] | binding result [2] | Kd [3] | koff [3] | kon [3] | Kd [4] | Kd [5] | dH [5] | stoichiometry N [5] | Kd [6] | koff [6] | kon [6] |
| --- | --- | --- | --- | --- | --- | --- | --- | --- | --- | --- | --- | --- | --- | --- |
| VHH4 (VHH, alpaca VHH selected by phage display; CDR3 is Ala99-Tyr122; Disulfide bond between Cys50 and Cys106; also called VHH4 WT; WT; source: E. coli BL21 (DE3), purified (Ni-NTA, SEC)) VHH: QVQLVESGGGLVQAGGSLRLSCAASGLTVDDYAIGWFRQAPGKEREGVSCISSSNGSTYYADSVKGRFTISSDNAKNTAYLQMNSLKPEDTAVYYCAAAVSPNLECGTGPFGIYASYYGMDYWGQGTQVTVSS | 2.01 nM | -28.9 kcal/mol | 0.895 | binds | 0.00171 nM | 5.53e-08 s⁻¹ | 31400 M⁻¹ s⁻¹ | > 1000 nM | – | – | – | – | – | – |
| VHH4 D121A (VHH, as the VHH chain of m4 (PDB 7WKI) with the stated change; also called D121A_(VHH4); Asp121A_(VHH4); source: E. coli BL21 (DE3), purified (Ni-NTA, SEC), as the wildtype) VHH: QVQLVESGGGLVQAGGSLRLSCAASGLTVDDYAIGWFRQAPGKEREGVSCISSSNGSTYYADSVKGRFTISSDNAKNTAYLQMNSLKPEDTAVYYCAAAVSPNLECGTGPFGIYASYYGMAYWGQGTQVTVSS | – | – | – | – | – | – | – | – | 361 ± 64.9 nM | -29.5 ± 1.14 kcal/mol | 1 ± 0.019 | 127 ± 30 nM | 0.000545 s⁻¹ | 4340 M⁻¹ s⁻¹ |
| VHH4 T108A (VHH) VHH: QVQLVESGGGLVQAGGSLRLSCAASGLTVDDYAIGWFRQAPGKEREGVSCISSSNGSTYYADSVKGRFTISSDNAKNTAYLQMNSLKPEDTAVYYCAAAVSPNLECGAGPFGIYASYYGMDYWGQGTQVTVSS | 8.79 nM | -27.2 kcal/mol | 0.924 | – | 0.146 nM | 2.57e-06 s⁻¹ | 17900 M⁻¹ s⁻¹ | – | – | – | – | – | – | – |
| VHH4 L104A (VHH, as the VHH chain of m4 (PDB 7WKI) with the stated change; also called L104A_(VHH4); Leu104A_(VHH4); source: E. coli BL21 (DE3), purified (Ni-NTA, SEC), as the wildtype) VHH: QVQLVESGGGLVQAGGSLRLSCAASGLTVDDYAIGWFRQAPGKEREGVSCISSSNGSTYYADSVKGRFTISSDNAKNTAYLQMNSLKPEDTAVYYCAAAVSPNAECGTGPFGIYASYYGMDYWGQGTQVTVSS | – | – | – | – | – | – | – | – | 166 ± 40.3 nM | -24.5 ± 0.99 kcal/mol | 0.947 ± 0.061 | 44.1 ± 2.3 nM | 0.000489 s⁻¹ | 11200 M⁻¹ s⁻¹ |
| VHH4 Y117A (VHH) VHH: QVQLVESGGGLVQAGGSLRLSCAASGLTVDDYAIGWFRQAPGKEREGVSCISSSNGSTYYADSVKGRFTISSDNAKNTAYLQMNSLKPEDTAVYYCAAAVSPNLECGTGPFGIYASAYGMDYWGQGTQVTVSS | 5.87 nM | -28.1 kcal/mol | 0.933 | – | 0.498 nM | 5.39e-07 s⁻¹ | 11300 M⁻¹ s⁻¹ | – | – | – | – | – | – | – |
| VHH4 Y95A (VHH) VHH: QVQLVESGGGLVQAGGSLRLSCAASGLTVDDYAIGWFRQAPGKEREGVSCISSSNGSTYYADSVKGRFTISSDNAKNTAYLQMNSLKPEDTAVYACAAAVSPNLECGTGPFGIYASYYGMDYWGQGTQVTVSS | 2.27 nM | -28.2 kcal/mol | 0.842 | – | 0.166 nM | 4.42e-06 s⁻¹ | 30400 M⁻¹ s⁻¹ | – | – | – | – | – | – | – |
| VHH4 Y118A (VHH, as the VHH chain of m4 (PDB 7WKI) with the stated change; also called Y118A_(VHH4); Tyr118A_(VHH4); source: E. coli BL21 (DE3), purified (Ni-NTA, SEC), as the wildtype) VHH: QVQLVESGGGLVQAGGSLRLSCAASGLTVDDYAIGWFRQAPGKEREGVSCISSSNGSTYYADSVKGRFTISSDNAKNTAYLQMNSLKPEDTAVYYCAAAVSPNLECGTGPFGIYASYAGMDYWGQGTQVTVSS | – | – | – | – | – | – | – | – | 410 ± 26.4 nM | -19.4 ± 0.33 kcal/mol | 0.947 ± 0.041 | 2200 ± 732 nM | 0.0298 s⁻¹ | 15800 M⁻¹ s⁻¹ |
| VHH4 G119A (VHH) VHH: QVQLVESGGGLVQAGGSLRLSCAASGLTVDDYAIGWFRQAPGKEREGVSCISSSNGSTYYADSVKGRFTISSDNAKNTAYLQMNSLKPEDTAVYYCAAAVSPNLECGTGPFGIYASYYAMDYWGQGTQVTVSS | 7.26 nM | -19.4 kcal/mol | 0.865 | – | 9.18 nM | 0.000611 s⁻¹ | 62800 M⁻¹ s⁻¹ | – | – | – | – | – | – | – |
| VHH4 W123A (VHH) VHH: QVQLVESGGGLVQAGGSLRLSCAASGLTVDDYAIGWFRQAPGKEREGVSCISSSNGSTYYADSVKGRFTISSDNAKNTAYLQMNSLKPEDTAVYYCAAAVSPNLECGTGPFGIYASYYGMDYAGQGTQVTVSS | 3.92 nM | -20.9 kcal/mol | 0.866 | – | 5.05 nM | 0.000159 s⁻¹ | 31200 M⁻¹ s⁻¹ | – | – | – | – | – | – | – |
| VHH4 P110A (VHH) VHH: QVQLVESGGGLVQAGGSLRLSCAASGLTVDDYAIGWFRQAPGKEREGVSCISSSNGSTYYADSVKGRFTISSDNAKNTAYLQMNSLKPEDTAVYYCAAAVSPNLECGTGAFGIYASYYGMDYWGQGTQVTVSS | 5.03 nM | -29.8 kcal/mol | 0.838 | – | 0.504 nM | 7.11e-06 s⁻¹ | 9210 M⁻¹ s⁻¹ | – | – | – | – | – | – | – |
| VHH4 P102A (VHH) VHH: QVQLVESGGGLVQAGGSLRLSCAASGLTVDDYAIGWFRQAPGKEREGVSCISSSNGSTYYADSVKGRFTISSDNAKNTAYLQMNSLKPEDTAVYYCAAAVSANLECGTGPFGIYASYYGMDYWGQGTQVTVSS | 4.11 nM | -29.6 kcal/mol | 0.961 | – | 0.219 nM | 4.07e-06 s⁻¹ | 23700 M⁻¹ s⁻¹ | – | – | – | – | – | – | – |

Source: article PMC9127587, “Antibody recognition of complement factor H reveals a flexible loop involved in atypical hemolytic uremic syndrome pathogenesis” (The Journal of Biological Chemistry, 2022)
